Reference: patent US7732162

Columns and labels:
H-Gln-Lys-Arg-Leu-NH2 = tested on: T1, H-Gln-Lys-Arg-Leu-NH2
T1 sequence: QKRL

[Gln^1]-Gastrin = tested on: T2, [Gln^1]-Gastrin
T2 sequence: QGPWLEEEEEAYGWMDF

H-Gln-Phe-Ala-NH2 = tested on: T3, H-Gln-Phe-Ala-NH2
T3 sequence: QFA

H-Gln-Glu-Tyr-Phe-NH2 = tested on: T4, H-Gln-Glu-Tyr-Phe-NH2
T4 sequence: QEYF

H-Gln-Glu-Ala-Ala-NH2 = tested on: T5, H-Gln-Glu-Ala-Ala-NH2
T5 sequence: QEAA

[Gln^1]-GnRH = tested on: T6, [Gln^1]-GnRH
T6 sequence: QHWSYGLRPG

H-Gln-Asn-Gly-Ile-NH2 = tested on: T7, H-Gln-Asn-Gly-Ile-NH2
T7 sequence: QNGI

[Gln^1]-FPP = tested on: T8, [Gln^1]-FPP
T8 sequence: QEP

H-Gln-Glu-Tyr-Ala-NH2 = tested on: T9, H-Gln-Glu-Tyr-Ala-NH2
T9 sequence: QEYA

H-Gln-Pro-Tyr-Phe-NH2 = tested on: T10, H-Gln-Pro-Tyr-Phe-NH2
T10 sequence: QPYF

H-Gln-Trp-Ala-NH2 = tested on: T11, H-Gln-Trp-Ala-NH2
T11 sequence: QWA

H-Gln-Glu-Asp-Leu-NH2 = tested on: T12, H-Gln-Glu-Asp-Leu-NH2
T12 sequence: QEDL

[1] = tested on: T13, H-Gln-cyclo(Nε-Lys-Arg-Pro-Ala-Gly-Phe)
T13 sequence: QKRPAGF

[2] = tested on: T14, H-βhomoGln-Phe-Lys-Arg-Leu-Ala-NH2
T14 sequence: QFKRLA

H-Gln-Arg-Tyr-Phe-NH2 = tested on: T15, H-Gln-Arg-Tyr-Phe-NH2
T15 sequence: QRYF

H-Gln-Gln-OH = tested on: T16, H-Gln-Gln-OH
T16 sequence: QQ

H-Gln-Glu-Ala-Phe-NH2 = tested on: T17, H-Gln-Glu-Ala-Phe-NH2
T17 sequence: QEAF

H-Gln-Gly-OH = tested on: T18, H-Gln-Gly-OH
T18 sequence: QG

[Gln^3]-glucagon(3-29) = [Gln^3]-glucagon(3-29) (UniProt P01275)
H-Gln-Glu-OH = tested on: T19, H-Gln-Glu-OH
T19 sequence: QE

H-Gln-Tyr-Ala-OH = tested on: T20, H-Gln-Tyr-Ala-OH
T20 sequence: QYA

H-Gln-Glu-Tyr-NH2 = tested on: T21, H-Gln-Glu-Tyr-NH2
T21 sequence: QEY

H-Gln-His-Tyr-Phe-NH2 = tested on: T22, H-Gln-His-Tyr-Phe-NH2
T22 sequence: QHYF

H-Gln-Arg-Gly-Ile-NH2 = tested on: T23, H-Gln-Arg-Gly-Ile-NH2
T23 sequence: QRGI

[3] = tested on: T24, H-Gln-Ala-Ala-Ser-Ala-Ala-NH2
T24 sequence: QAASAA

H-Gln-Ala-OH = tested on: T25, H-Gln-Ala-OH
T25 sequence: QA

H-Gln-Ala-Ala-NH2 = tested on: T26, H-Gln-Ala-Ala-NH2
T26 sequence: QAA

H-Gln-Gln-Tyr-Phe-NH2 = tested on: T27, H-Gln-Gln-Tyr-Phe-NH2
T27 sequence: QQYF

H-Gln-Ala-NH2 = tested on: T28, H-Gln-Ala-NH2
T28 sequence: QA

H-Gln-Ser-Tyr-Phe-NH2 = tested on: T29, H-Gln-Ser-Tyr-Phe-NH2
T29 sequence: QSYF

[4] = tested on: T30, [Gln^5]-substance P(5-11)
T30 sequence: QQFFGLM

[5] = tested on: T31, H-Gln-Ala-Ala-Ala-Ala-NH2
T31 sequence: QAAAA

H-Gln-Gly-Pro-OH = tested on: T32, H-Gln-Gly-Pro-OH
T32 sequence: QGP

[Gln^3]-glucagon(3-29), sequence (P01275 whole entry, looked up, tested part not stated): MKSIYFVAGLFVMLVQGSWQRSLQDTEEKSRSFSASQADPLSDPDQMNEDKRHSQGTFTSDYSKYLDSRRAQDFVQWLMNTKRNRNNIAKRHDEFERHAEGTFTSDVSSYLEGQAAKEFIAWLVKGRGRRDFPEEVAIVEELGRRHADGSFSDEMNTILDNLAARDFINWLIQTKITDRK

**Q.** Which results are given for “QC from papaya latex (Carica papaya glutaminyl cyclase)”?
**A.** KM (H-Gln-Lys-Arg-Leu-NH2): 118 µM; KM (0.05 M Tricine-NaOH, pH 8.0) (H-Gln-Lys-Arg-Leu-NH2): 0.102 mM; KM (0.05 M Tricine-NaOH, pH 8.0, 0.5 M KCl) (H-Gln-Lys-Arg-Leu-NH2): 0.053 mM; KM ([Gln^1]-Gastrin): 34 µM; KM (H-Gln-Phe-Ala-NH2): 111 µM; KM (H-Gln-Glu-Tyr-Phe-NH2): 100 µM; KM (H-Gln-Glu-Ala-Ala-NH2): 102 µM; KM ([Gln^1]-GnRH): 169 µM; KM (H-Gln-Asn-Gly-Ile-NH2): 153 µM; KM ([Gln^1]-FPP): 232 µM; KM (H-Gln-Glu-Tyr-Ala-NH2): 113 µM; KM (H-Gln-Pro-Tyr-Phe-NH2): 149 µM; KM (H-Gln-Trp-Ala-NH2): 78 µM; KM (0.05 M Tricine-NaOH, pH 8.0) (H-Gln-Trp-Ala-NH2): 0.079 mM; KM (0.05 M Tricine-NaOH, pH 8.0, 0.5 M KCl) (H-Gln-Trp-Ala-NH2): 0.072 mM; KM (H-Gln-Glu-Asp-Leu-NH2): 107 µM; KM (0.05 M Tricine-NaOH, pH 8.0) (H-Gln-Glu-Asp-Leu-NH2): 0.109 mM; KM (0.05 M Tricine-NaOH, pH 8.0, 0.5 M KCl) (H-Gln-Glu-Asp-Leu-NH2): 0.094 mM; KM [1]: KM-values of 240±14 µM and 133±5 µM for human and papaya QC, respectively; KM [2]: KM=3.1±0.3 mM; KM ([Gln^1]-Neurotensin): 40 µM; KM (H-Gln-Arg-Tyr-Phe-NH2): 124 µM; KM (H-Gln-Gln-OH): 44 µM; KM (H-Gln-Glu-Ala-Phe-NH2): 81 µM; KM (H-Gln-Gly-OH): 641 µM; substrate conversion (kcat/KM column) ([Gln^3]-glucagon(3-29)): *; KM (H-Gln-Glu-OH): 106 µM; KM (0.05 M Tricine-NaOH, pH 8.0) (H-Gln-Glu-OH): 0.098 mM; KM (0.05 M Tricine-NaOH, pH 8.0, 0.5 M KCl) (H-Gln-Glu-OH): 0.094 mM; KM (H-Gln-Tyr-Ala-OH): 63 µM; KM (H-Gln-Glu-Tyr-NH2): 103 µM; KM (H-Gln-His-Tyr-Phe-NH2): 92 µM; KM (H-Gln-Arg-Gly-Ile-NH2): 123 µM; KM (0.05 M Tricine-NaOH, pH 8.0) (H-Gln-Arg-Gly-Ile-NH2): 0.106 mM; KM (0.05 M Tricine-NaOH, pH 8.0, 0.5 M KCl) (H-Gln-Arg-Gly-Ile-NH2): 0.065 mM; KM [3]: 216 µM; KM (H-Gln-Ala-OH): 158 µM; KM (0.05 M Tricine-NaOH, pH 8.0) (H-Gln-Ala-OH): 0.137 mM; KM (0.05 M Tricine-NaOH, pH 8.0, 0.5 M KCl) (H-Gln-Ala-OH): 0.143 mM; KM (H-Gln-Ala-Ala-NH2): 164 µM; KM (H-Gln-Gln-Tyr-Phe-NH2): 45 µM; KM (H-Gln-Ala-NH2): 212 µM; KM (H-Gln-Ser-Tyr-Phe-NH2): 135 µM; substrate conversion (kcat/KM column) [4]: *; KM [5]: 197 µM; KM (H-Gln-Gly-Pro-OH): 333 µM
